# The supplement of paper PMC9732359
# ± gives the uncertainty stated by the source.
# Experiment: protein stability index of a GFP-peptide fusion (yeast GPS) (PSI 1-4); higher = more stable; sorted into four equal gates, so the index is relative within each strain
# Outline: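 Tiled 17-residue yeast protein peptides were fused downstream of GFP in a plasmid that also expresses Cherry, and the pooled library was carried in yeast. Mid-log cultures in leucine-free medium were sorted into four equal gates by GFP/Cherry fluorescence ratio, and plasmids from each gate were PCR-amplified and Illumina-sequenced, with reads assigned to strains by barcodes. The protein stability index for each peptide was each gate's read frequency times its gate number, summed.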
sequence,measurement,setting,value
ISLYLLNLLSQNNTTKF [RPN12],protein stability index,doa10∆,1.53 ± 0.044
same,protein stability index,pdr5∆,1.72 ± 0.054
same,protein stability index,san1∆,1.32 ± 0.073
same,protein stability index,ubr1∆,1.36 ± 0.039
NEAALVVNITHHELVPK [RPB5],protein stability index,doa10∆,2.93 ± 0.09
same,protein stability index,pdr5∆,2.71 ± 0.06
same,protein stability index,san1∆,3.14 ± 0.062
same,protein stability index,ubr1∆,2.88 ± 0.081
EDKFLYGDGNGKGDNDN [SWI3],protein stability index,doa10∆,3.48 ± 0.24
same,protein stability index,pdr5∆,3.35 ± 0.16
same,protein stability index,san1∆,3.4 ± 0.08
same,protein stability index,ubr1∆,3.42 ± 0.15
RAGVTHVLSRLSYISAL [RET1],protein stability index,doa10∆,1.47 ± 0.074
same,protein stability index,pdr5∆,1.26 ± 0.068
same,protein stability index,san1∆,1.22 ± 0.11
same,protein stability index,ubr1∆,1.23 ± 0.081
DEEASYKLGKVKKVQLG [RPS4A],protein stability index,doa10∆,2.96 ± 0.1
same,protein stability index,pdr5∆,3.1 ± 0.069
same,protein stability index,san1∆,2.9 ± 0.063
same,protein stability index,ubr1∆,2.98 ± 0.061
DNDGFSFLMRQFTRFFL [ECM29],protein stability index,doa10∆,1.63 ± 0.047
same,protein stability index,pdr5∆,2.19 ± 0.059
same,protein stability index,san1∆,1.87 ± 0.075
same,protein stability index,ubr1∆,2.43 ± 0.047
DYLKNIIVENSGTSGDE [RPN2],protein stability index,doa10∆,3.43 ± 0.21
same,protein stability index,pdr5∆,3.48 ± 0.15
same,protein stability index,san1∆,3.14 ± 0.057
same,protein stability index,ubr1∆,3.29 ± 0.1
FAGSNNQPHQSQTPSFN [YOR098C/NUP1],protein stability index,doa10∆,2.68 ± 0.046
same,protein stability index,pdr5∆,2.91 ± 0.036
same,protein stability index,san1∆,2.73 ± 0.036
same,protein stability index,ubr1∆,3.01 ± 0.031
EVRRAAMLNLINDNNTR [YCG1],protein stability index,doa10∆,3.32 ± 0.12
same,protein stability index,pdr5∆,3.41 ± 0.11
same,protein stability index,san1∆,2.94 ± 0.11
same,protein stability index,ubr1∆,3.13 ± 0.1
QLLQRLNDMNTEISGLK [SMC3],protein stability index,doa10∆,3.28 ± 0.081
same,protein stability index,pdr5∆,3.38 ± 0.1
same,protein stability index,san1∆,3.22 ± 0.06
same,protein stability index,ubr1∆,3.3 ± 0.058
IGIPVNKASLAQYEVLA [QCR2],protein stability index,doa10∆,2.52 ± 0.06
same,protein stability index,pdr5∆,2.42 ± 0.049
same,protein stability index,san1∆,1.92 ± 0.088
same,protein stability index,ubr1∆,2.81 ± 0.043
AGQIPTGWNAKTYGISD [FAS2],protein stability index,doa10∆,1.68 ± 0.14
same,protein stability index,pdr5∆,1.36 ± 0.12
same,protein stability index,san1∆,1.66 ± 0.26
same,protein stability index,ubr1∆,1.23 ± 0.09
ENEISSLLAMHKHNIMK [CDC53],protein stability index,doa10∆,2.92 ± 0.079
same,protein stability index,pdr5∆,2.99 ± 0.059
same,protein stability index,san1∆,3.02 ± 0.052
same,protein stability index,ubr1∆,3.07 ± 0.039
HGIKDIPIGHVHVIHFQ [AAR2],protein stability index,doa10∆,2.89 ± 0.06
same,protein stability index,pdr5∆,2.86 ± 0.058
same,protein stability index,san1∆,2.87 ± 0.059
same,protein stability index,ubr1∆,2.75 ± 0.041
AHLYMLEPSGSYWGYKG [PRE10],protein stability index,doa10∆,1.66 ± 0.069
same,protein stability index,pdr5∆,1.7 ± 0.13
same,protein stability index,san1∆,2.06 ± 0.21
same,protein stability index,ubr1∆,1.84 ± 0.082
DNIGEIDESLFNLLILS [YCG1],protein stability index,doa10∆,2.96 ± 0.13
same,protein stability index,pdr5∆,3.02 ± 0.11
same,protein stability index,san1∆,2.31 ± 0.16
same,protein stability index,ubr1∆,3.1 ± 0.14
LATPVQFELLSRRWRQR [BRR2],protein stability index,doa10∆,1.79 ± 0.072
same,protein stability index,pdr5∆,1.87 ± 0.054
same,protein stability index,san1∆,1.81 ± 0.072
same,protein stability index,ubr1∆,2.17 ± 0.051
KDNDKNLKFLKNKDSLV [SRB4],protein stability index,doa10∆,3.48 ± 0.094
same,protein stability index,pdr5∆,3.21 ± 0.12
same,protein stability index,san1∆,3.28 ± 0.072
same,protein stability index,ubr1∆,3.34 ± 0.068
VAGLEDKFRKACSSSGR [SIR3],protein stability index,doa10∆,3.16 ± 0.14
same,protein stability index,pdr5∆,2.93 ± 0.095
same,protein stability index,san1∆,2.98 ± 0.18
same,protein stability index,ubr1∆,2.9 ± 0.056
